Here are results for ten molecules from publication PMC6384913, “Exploring the suitability of RanBP2-type Zinc Fingers for RNA-binding protein design”.

Series [1] deals with T1, (ABI3-5Sup-ZF)x2 (Arabidopsis thaliana, UniProt F4JCU0 379-406).
T1 chain: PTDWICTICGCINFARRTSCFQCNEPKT
Description: ITC; ITC: 50 mM Tris pH 7.5, 150 mM NaCl, 1 mM DTT, 0.1 mM ZnCl2, 25 °C; BLI: 50 mM Tris pH 7.5, 150 mM NaCl, 1 mM DTT, 0.1% BSA, 0.02% Tween, 30 °C. The settings on record: protein: recombinant; tags: GST cleaved (HRV-3C).

In the next series the target is T2, (ZRANB1-B-ZF)x2 (Danio rerio, UniProt A0JMQ9 152-182).
T2 chain: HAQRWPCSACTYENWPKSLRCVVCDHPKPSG
The series is described as above. The settings on record: protein: recombinant; tags: GST cleaved (HRV-3C).

Series [2] has as its target T3, (EWS-ZF)x2 (Homo sapiens, UniProt Q01844-5 523-555). The description is as above. The settings on record: protein: recombinant; tags: GST cleaved (HRV-3C).
The target in series [3] is T4, (FUS-ZF)x2 (Xenopus laevis, UniProt Q7ZXQ2 435-467).
T4 chain: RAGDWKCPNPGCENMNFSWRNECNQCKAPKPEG
The description is as above. The settings on record: protein: recombinant; tags: GST cleaved (HRV-3C).

In series [4] the target is T3, (EWS-ZF)x2. Description: BLI; ITC: 50 mM Tris pH 7.5, 150 mM NaCl, 1 mM DTT, 0.1 mM ZnCl2, 25 °C; BLI: 50 mM Tris pH 7.5, 150 mM NaCl, 1 mM DTT, 0.1% BSA, 0.02% Tween, 30 °C. The following applies: protein: recombinant; tags: GST cleaved (HRV-3C); label: 5' biotin.
Series [5] addresses T1, (ABI3-5Sup-ZF)x2. The series is described as above. The settings on record: protein: recombinant; tags: GST cleaved (HRV-3C); label: 5' biotin.
For a further series, the target named is T5, (hRBM10-ZF)x2 (Homo sapiens, UniProt P98175 212-243).
T5 chain: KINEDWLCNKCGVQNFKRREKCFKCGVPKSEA
Described as above. The following applies: protein: recombinant; tags: GST cleaved (HRV-3C); label: 5' biotin.

Series [6] concerns the target T4, (FUS-ZF)x2. Described as above. The settings on record: protein: recombinant; tags: GST cleaved (HRV-3C); label: 5' biotin.
The target in the next series is T6, (mRBM10-ZF N4D)x2 (Mus musculus, UniProt Q99KG3-2 135-166+=GSGSG+135-166, V161M;internal_change).
T6 sequence: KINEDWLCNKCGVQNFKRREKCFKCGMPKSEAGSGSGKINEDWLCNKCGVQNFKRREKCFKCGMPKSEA
Described as above. The following applies: protein: recombinant; tags: GST cleaved (HRV-3C); label: 5' biotin.

T3 sequence (Q01844 518-550): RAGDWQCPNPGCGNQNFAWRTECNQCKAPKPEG

For orientation: Kd means the constant that tells how readily two partners part at equilibrium. Consider AAAGGAGGAAAA (ssRNA) [(GGA)x2], for which the Kd with (ABI3-5Sup-ZF)x2 [1] was 1000 ± 100 nM.
On to AAAGGUGGUAAA (ssRNA) [(GGU)x2], for which the binding result with (ZRANB1-B-ZF)x2 is on record as “no binding”. Further, the Kd with (EWS-ZF)x2 [2] was 200 ± 30 nM; with (ABI3-5Sup-ZF)x2 [1], 700 ± 100 nM; with (FUS-ZF)x2 [3], 200 ± 20 nM.
Turning to AAAGGAGGAAAA (ssRNA) [(GGA)x2 biotin], the binding result in the series with (EWS-ZF)x2 [4] and with (FUS-ZF)x2 [6] was “no binding” each time. For the same molecule, the values for the Kd with (ABI3-5Sup-ZF)x2 [5] and with (hRBM10-ZF)x2 were 2600 ± 1000 nM and 1400 ± 10 nM, respectively.
AAAGAUGAUAAA (ssRNA) [(GAU)x2 biotin]: the binding result in the series with (EWS-ZF)x2 [4], in the series with (ABI3-5Sup-ZF)x2 [5], in the series with (hRBM10-ZF)x2 and with (FUS-ZF)x2 [6] was “no binding” in each case.
In the case of AAAAGUAGUAAA (ssRNA) [(AGU)x2 biotin], the binding result with (EWS-ZF)x2 [4], with (ABI3-5Sup-ZF)x2 [5], in the series with (hRBM10-ZF)x2 and in the series with (FUS-ZF)x2 [6] was “no binding” in each case.
Take AAAAAAAAAAAA (ssRNA) [polyA control 12-mer]: the binding result in the series with (ZRANB1-B-ZF)x2 is “no binding”.
For AAAAAAAAAAAA (ssRNA) [(AAA)x2 biotin], the binding result in the series with (EWS-ZF)x2 [4], in the series with (ABI3-5Sup-ZF)x2 [5], with (hRBM10-ZF)x2 and with (FUS-ZF)x2 [6] was “no binding” in each case.
Regarding AAAGGCGGCAAA (ssRNA) [(GGC)x2 biotin], the binding result with (EWS-ZF)x2 [4] and with (FUS-ZF)x2 [6] was “no binding” throughout. The dissociation constant (Kd) in the series with (hRBM10-ZF)x2 is 2600 ± 30 nM.
As to AAAGGGGGGAAA (ssRNA) [(GGG)x2 biotin], the Kd in the series with (mRBM10-ZF N4D)x2 worked out at 400 ± 30 nM; with (EWS-ZF)x2 [4] it was 1100 ± 10 nM; with (ABI3-5Sup-ZF)x2 [5], 3000 ± 500 nM; with (hRBM10-ZF)x2, 300 ± 30 nM; with (FUS-ZF)x2 [6], 1100 ± 300 nM.
For AAAGGUGGUAAA (ssRNA) [(GGU)x2 biotin], the Kd in the series with (EWS-ZF)x2 [4] worked out at 800 ± 60 nM; with (ABI3-5Sup-ZF)x2 [5], 1000 ± 10 nM; with (hRBM10-ZF)x2, 500 ± 10 nM; in the series with (FUS-ZF)x2 [6], 800 ± 70 nM.
